In IntAct's records for PubMed 19037259:

B1: Protein VAC14 homolog (Homo sapiens), Q08AM6 (parent)
chain: MNPEKDFAPLTPNIVRALNDKLYEKRKVAALEIEKLVREFVAQNNTVQIKHVIQTLSQEFALSQHPHSRKGGLIGLAACSIALGKDSGLYLKELIEPVLTCFNDADSRLRYYACEALYNIVKVARGAVLPHFNVLFDGLSKLAADPDPNVKSGSELLDRLLKDIVTESNKFDLVSFIPLLRERIYSNNQYARQFIISWILVLESVPDINLLDYLPEILDGLFQILGDNGKEIRKMCEVVLGEFLKEIKKNPSSVKFAEMANILVIHCQTTDDLIQLTAMCWMREFIQLAGRVMLPYSSGILTAVLPCLAYDDRKKSIKEVANVCNQSLMKLVTPEDDELDELRPGQRQAEPTPDDALPKQEGTASGGPDGSCDSSFSSGISVFTAASTERAPVTLHLDGIVQVLNCHLSDTAIGMMTRIAVLKWLYHLYIKTPRKMFRHTDSLFPILLQTLSDESDEVILKDLEVLAEIASSPAGQTDDPGPLDGPDLQASHSELQVPTPGRAGLLNTSGTKGLECSPSTPTMNSYFYKFMINLLKRFSSERKLLEVRGPFIIRQLCLLLNAENIFHSMADILLREEDLKFASTMVHALNTILLTSTELFQLRNQLKDLKTLESQNLFCCLYRSWCHNPVTTVSLCFLTQNYRHAYDLIQKFGDLEVTVDFLAEVDKLVQLIECPIFTYLRLQLLDVKNNPYLIKALYGLLMLLPQSSAFQLLSHRLQCVPNPELLQTEDSLKAAPKSQKADSPSIDYAELLQHFEKVQNKHLEVRHQRSGRGDHLDRRVVL
partner: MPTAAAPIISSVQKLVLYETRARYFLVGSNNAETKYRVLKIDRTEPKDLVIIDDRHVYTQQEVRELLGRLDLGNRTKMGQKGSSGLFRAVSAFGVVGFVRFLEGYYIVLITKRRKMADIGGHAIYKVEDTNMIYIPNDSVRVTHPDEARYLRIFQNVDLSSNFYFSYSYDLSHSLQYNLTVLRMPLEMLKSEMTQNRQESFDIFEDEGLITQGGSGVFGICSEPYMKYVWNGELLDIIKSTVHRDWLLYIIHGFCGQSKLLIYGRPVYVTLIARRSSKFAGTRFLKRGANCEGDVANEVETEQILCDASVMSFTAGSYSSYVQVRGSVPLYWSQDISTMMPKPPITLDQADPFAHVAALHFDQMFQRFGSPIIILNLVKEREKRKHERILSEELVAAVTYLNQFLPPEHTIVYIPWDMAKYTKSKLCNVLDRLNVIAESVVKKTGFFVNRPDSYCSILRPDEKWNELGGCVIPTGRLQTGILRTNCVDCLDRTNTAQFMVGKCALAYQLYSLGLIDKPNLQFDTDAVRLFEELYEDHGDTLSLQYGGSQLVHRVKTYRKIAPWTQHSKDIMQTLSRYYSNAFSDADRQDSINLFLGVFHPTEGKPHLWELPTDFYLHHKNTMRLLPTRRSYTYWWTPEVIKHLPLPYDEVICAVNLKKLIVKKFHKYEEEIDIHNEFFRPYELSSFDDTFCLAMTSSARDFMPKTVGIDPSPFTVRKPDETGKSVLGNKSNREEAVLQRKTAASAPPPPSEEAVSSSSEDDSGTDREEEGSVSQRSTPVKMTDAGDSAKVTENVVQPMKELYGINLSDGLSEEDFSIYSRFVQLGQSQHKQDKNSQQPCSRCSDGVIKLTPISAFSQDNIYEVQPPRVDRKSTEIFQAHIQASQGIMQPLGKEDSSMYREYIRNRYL
B2: Vacuole morphology and inheritance protein 14 (Saccharomyces cerevisiae), Q06708 (parent)
chain: MEKSIAKGLSDKLYEKRKAAALELEKLVKQCVLEGDYDRIDKIIDELCRDYAYALHQPMARNAGLMGLAATAIALGINDVGRYLRNILPPVLACFGDQNDQVRFYACESLYNIAKIAKGEILVYFNEIFDVLCKISADTENSVRGAAELLDRLIKDIVAERASNYISIVNNGSHGLLPAIKTDPISGDVYQEEYEQDNQLAFSLPKFIPLLTERIYAINPDTRVFLVDWLKVLLNTPGLELISYLPSFLGGLFTFLGDSHKDVRTVTHTLMDSLLHEVDRISKLQTEIKMKRLERLKMLEDKYNNSSTPTKKADGALIAEKKKTLMTALGGLSKPLSMETDDTKLSNTNETDDERHLTSQEQLLDSEATSQEPLRDGEEYIPGQDINLNFPEVITVLVNNLASSEAEIQLIALHWIQVILSISPNVFIPFLSKILSVLLKLLSDSDPHITEIAQLVNGQLLSLCSSYVGKETDGKIAYGPIVNSLTLQFFDSRIDAKIACLDWLILIYHKAPNQILKHNDSMFLTLLKSLSNRDSVLIEKALSLLQSLCSDSNDNYLRQFLQDLLTLFKRDTKLVKTRANFIMRQISSRLSPERVYKVISSILDNYNDTTFVKMMIQILSTNLITSPEMSSLRNKLRTCEDGMFFNSLFKSWCPNPVSVISLCFVAENYELAYTVLQTYANYELKLNDLVQLDILIQLFESPVFTRMRLQLLEQQKHPFLHKCLFGILMIIPQSKAFETLNRRLNSLNIWTSQSYVMNNYIRQRENSNFCDSNSDISQRSVSQSKLHFQELINHFKAVSEEDEYSSDMIRLDHGANNKSLLLGSFLDGIDEDKQEIVTPISPMNEAINEEMESPNDNSSVILKDSGSLPFNRNVSDKLKK
partner: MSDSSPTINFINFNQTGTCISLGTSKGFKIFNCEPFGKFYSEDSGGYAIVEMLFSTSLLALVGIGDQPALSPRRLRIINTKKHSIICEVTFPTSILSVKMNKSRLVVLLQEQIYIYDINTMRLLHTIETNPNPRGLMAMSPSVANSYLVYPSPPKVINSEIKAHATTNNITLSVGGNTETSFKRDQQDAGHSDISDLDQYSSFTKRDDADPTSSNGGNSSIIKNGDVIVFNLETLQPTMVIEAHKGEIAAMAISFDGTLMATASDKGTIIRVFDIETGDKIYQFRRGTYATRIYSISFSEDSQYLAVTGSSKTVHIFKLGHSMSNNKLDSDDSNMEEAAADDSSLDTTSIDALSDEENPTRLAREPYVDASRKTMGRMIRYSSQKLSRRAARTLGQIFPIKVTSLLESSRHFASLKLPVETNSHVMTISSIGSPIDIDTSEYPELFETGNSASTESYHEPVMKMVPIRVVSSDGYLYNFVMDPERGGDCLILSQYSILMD
B3: Vacuole morphology and inheritance protein 14 (Saccharomyces cerevisiae), Q06708 (parent)
chain: B2 chain
partner: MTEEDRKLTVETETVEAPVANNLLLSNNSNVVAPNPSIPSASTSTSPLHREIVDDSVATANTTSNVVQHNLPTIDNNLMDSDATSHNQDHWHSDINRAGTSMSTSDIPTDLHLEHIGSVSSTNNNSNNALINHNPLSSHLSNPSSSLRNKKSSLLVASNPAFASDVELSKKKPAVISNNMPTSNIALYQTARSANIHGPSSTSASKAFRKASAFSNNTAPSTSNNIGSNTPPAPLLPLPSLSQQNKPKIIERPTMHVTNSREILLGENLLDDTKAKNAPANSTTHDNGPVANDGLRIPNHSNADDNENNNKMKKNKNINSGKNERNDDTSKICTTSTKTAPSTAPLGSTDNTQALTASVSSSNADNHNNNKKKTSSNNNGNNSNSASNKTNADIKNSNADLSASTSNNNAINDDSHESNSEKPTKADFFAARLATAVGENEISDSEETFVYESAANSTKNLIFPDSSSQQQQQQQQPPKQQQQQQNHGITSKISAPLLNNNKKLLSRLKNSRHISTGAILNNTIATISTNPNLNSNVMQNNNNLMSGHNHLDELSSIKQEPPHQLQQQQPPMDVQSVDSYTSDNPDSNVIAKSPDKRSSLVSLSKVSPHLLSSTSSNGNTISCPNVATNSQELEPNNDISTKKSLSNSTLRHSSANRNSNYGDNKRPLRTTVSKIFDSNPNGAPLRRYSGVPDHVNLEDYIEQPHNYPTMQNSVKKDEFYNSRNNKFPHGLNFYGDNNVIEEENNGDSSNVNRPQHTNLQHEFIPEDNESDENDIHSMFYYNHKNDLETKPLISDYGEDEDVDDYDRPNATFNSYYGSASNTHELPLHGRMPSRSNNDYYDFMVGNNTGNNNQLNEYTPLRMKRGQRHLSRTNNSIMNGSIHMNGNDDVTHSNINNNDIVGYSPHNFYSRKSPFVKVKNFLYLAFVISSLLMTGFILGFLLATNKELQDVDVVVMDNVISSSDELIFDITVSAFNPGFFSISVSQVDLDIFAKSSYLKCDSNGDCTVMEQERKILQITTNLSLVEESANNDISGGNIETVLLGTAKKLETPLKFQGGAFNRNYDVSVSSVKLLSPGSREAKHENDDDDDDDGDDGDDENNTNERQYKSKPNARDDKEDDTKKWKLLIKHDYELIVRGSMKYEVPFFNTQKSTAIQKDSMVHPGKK
B4: Vacuole morphology and inheritance protein 14 (Saccharomyces cerevisiae), Q06708 (parent)
chain: B2 chain
B5: Protein VAC14 homolog (Homo sapiens), Q08AM6 (parent)
chain: B1 chain

Variants of: B1
Details: with fig4_human FIG4, Q92562

| effect of a mutation on the interaction | Variant |
| --- | --- |
| disrupting interaction | L156R |

Variants of: B2
Details: with atg18_yeast ATG18, P43601

| effect of a mutation on the interaction | Variant |
| --- | --- |
| disrupting interaction | L149R |

Variants of: B2
Details: with atg18_yeast ATG18, P43601
Remark: another data set of the same source

| effect of a mutation on the interaction | Variant |
| --- | --- |
| disrupting interaction | Q101R |
| disrupting interaction | R61K |
| disrupting interaction | H56Y |
| disrupting interaction | L329I |

Variants of: B3
Details: with vac7_yeast VAC7, P53950

| effect of a mutation on the interaction | Variant |
| --- | --- |
| disrupting interaction | R61K |
| disrupting interaction | L329I |
| disrupting interaction | Q101R |
| disrupting interaction | H56Y |

Variants of: B3
Details: with vac7_yeast VAC7, P53950
Remark: another data set of the same source

| effect of a mutation on the interaction | Variant |
| --- | --- |
| disrupting interaction | L149R |

Variants of: B4
Details: with fab1_yeast FAB1, P34756
Chain of fab1_yeast FAB1, P34756 (P34756 whole entry): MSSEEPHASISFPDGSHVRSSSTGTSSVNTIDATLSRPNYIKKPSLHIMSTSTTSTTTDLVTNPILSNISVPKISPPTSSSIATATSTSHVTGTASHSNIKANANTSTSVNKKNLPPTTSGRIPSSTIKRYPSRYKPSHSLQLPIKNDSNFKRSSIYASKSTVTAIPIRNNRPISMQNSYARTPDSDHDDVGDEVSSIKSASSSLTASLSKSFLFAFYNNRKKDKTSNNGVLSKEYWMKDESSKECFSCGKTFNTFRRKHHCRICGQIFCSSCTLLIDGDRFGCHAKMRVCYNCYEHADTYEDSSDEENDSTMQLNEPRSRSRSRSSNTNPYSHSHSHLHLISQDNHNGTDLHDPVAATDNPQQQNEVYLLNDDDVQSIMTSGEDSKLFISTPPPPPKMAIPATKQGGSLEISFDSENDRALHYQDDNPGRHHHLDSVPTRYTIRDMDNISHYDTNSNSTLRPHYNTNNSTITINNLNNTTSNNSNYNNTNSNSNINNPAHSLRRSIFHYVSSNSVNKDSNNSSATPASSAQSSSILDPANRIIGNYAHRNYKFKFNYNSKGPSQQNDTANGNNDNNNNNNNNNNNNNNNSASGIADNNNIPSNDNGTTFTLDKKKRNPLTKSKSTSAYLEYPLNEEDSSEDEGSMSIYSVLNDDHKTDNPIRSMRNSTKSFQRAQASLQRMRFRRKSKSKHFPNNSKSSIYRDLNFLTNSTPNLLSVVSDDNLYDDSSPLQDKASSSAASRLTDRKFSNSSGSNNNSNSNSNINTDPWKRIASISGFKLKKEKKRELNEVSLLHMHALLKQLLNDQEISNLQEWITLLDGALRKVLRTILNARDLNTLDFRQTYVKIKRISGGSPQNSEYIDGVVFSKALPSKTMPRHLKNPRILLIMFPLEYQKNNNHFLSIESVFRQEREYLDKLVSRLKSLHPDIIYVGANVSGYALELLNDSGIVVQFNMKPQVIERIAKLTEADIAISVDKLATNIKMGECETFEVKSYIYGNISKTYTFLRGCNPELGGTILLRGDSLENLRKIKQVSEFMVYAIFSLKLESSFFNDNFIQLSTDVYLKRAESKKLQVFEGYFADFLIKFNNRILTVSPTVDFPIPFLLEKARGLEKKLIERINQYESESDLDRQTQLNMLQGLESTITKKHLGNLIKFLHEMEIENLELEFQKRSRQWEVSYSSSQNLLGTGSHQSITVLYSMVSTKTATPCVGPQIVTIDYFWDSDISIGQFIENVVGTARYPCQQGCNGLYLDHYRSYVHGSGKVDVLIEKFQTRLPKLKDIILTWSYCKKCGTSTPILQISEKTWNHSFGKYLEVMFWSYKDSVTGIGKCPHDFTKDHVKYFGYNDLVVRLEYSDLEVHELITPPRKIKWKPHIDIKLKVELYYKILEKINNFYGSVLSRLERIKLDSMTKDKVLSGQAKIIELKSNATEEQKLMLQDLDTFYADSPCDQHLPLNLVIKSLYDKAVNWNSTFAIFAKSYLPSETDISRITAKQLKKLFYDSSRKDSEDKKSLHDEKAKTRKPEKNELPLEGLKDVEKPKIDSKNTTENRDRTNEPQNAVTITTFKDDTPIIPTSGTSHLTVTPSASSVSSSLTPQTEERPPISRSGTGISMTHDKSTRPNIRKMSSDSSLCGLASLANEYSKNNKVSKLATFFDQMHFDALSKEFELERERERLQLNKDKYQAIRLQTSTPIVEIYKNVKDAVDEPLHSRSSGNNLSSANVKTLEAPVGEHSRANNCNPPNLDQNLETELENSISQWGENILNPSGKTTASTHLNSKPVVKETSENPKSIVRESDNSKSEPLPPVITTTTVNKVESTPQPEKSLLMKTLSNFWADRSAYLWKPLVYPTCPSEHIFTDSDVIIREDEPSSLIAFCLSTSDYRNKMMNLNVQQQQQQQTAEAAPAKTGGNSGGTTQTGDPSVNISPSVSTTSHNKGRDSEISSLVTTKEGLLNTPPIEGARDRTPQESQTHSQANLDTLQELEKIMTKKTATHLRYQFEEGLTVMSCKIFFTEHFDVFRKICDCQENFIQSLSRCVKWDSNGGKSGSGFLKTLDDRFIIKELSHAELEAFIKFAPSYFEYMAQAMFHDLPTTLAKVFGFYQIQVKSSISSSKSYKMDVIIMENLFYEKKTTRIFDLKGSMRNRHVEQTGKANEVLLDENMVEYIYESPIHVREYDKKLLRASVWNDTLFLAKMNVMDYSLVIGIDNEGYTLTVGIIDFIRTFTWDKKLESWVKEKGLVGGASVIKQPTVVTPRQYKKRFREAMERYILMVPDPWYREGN

| effect of a mutation on the interaction | Variant |
| --- | --- |
| disrupting interaction | L149R |

Variants of: B5
Details: with fyv1_human PIKFYVE

| effect of a mutation on the interaction | Variant |
| --- | --- |
| disrupting interaction | L156R |
